The values below come from the RNAGym collection of RNA variant scans (doi:10.7554/elife.80360).

To fix the notation:
B1: Twister Ribozyme (parent)
chain: AACACUGCCAAUGCCGGUCCCAAGCCCGGAUAAAAGUGGAGGGGGCGG

In the data set the parent is B1. Put plainly: self-cleavage, relative activity (ratio to wild type); higher = more cleavage; co-transcriptional.
Regarding C9U C21G, the self-cleavage is 0.0888.

With G28C A32C, the self-cleavage is 0.728.

As for C27G G38C, the self-cleavage worked out at 0.0767.

A2C A23U: the self-cleavage is 0.0734.

On to A2G A10G, for which the self-cleavage was 0.312.

Regarding A2C U31A, the self-cleavage is 0.0563.

A10U C15G: the self-cleavage worked out at 0.062.

For the variant G7U C14U, the self-cleavage turned out to be 0.0997.

With A23G A30G, the self-cleavage was 0.647.

For the variant C15G G41A, the self-cleavage was 0.112.

Consider A34G G39C, for which the self-cleavage was found to be 0.109.

On to G43U G44A, for which the self-cleavage stood at 0.722.

Consider G24C G28A, for which the self-cleavage was 0.0981.

Regarding A30C G38A, the self-cleavage was 0.649.

As to A1C A4C, the self-cleavage was 0.171.

In the case of A34C G45A, the self-cleavage came to 0.144.

For the variant U12G U37A, the self-cleavage was determined as 0.576.

For the variant G16U G29C, the self-cleavage stood at 0.544.

Regarding C19U A30U, the self-cleavage turned out to be 0.82.

For the variant A1G A35G, the self-cleavage turned out to be 0.326.

Consider U12G C27U, for which the self-cleavage worked out at 0.496.

Turning to C9G U18G, the self-cleavage was found to be 0.0467.

For G28A G43A, the self-cleavage amounted to 0.191.

As for A22G G44C, the self-cleavage was 0.225.

Turning to A22G G44A, the self-cleavage was found to be 0.315.

In the case of C19U G29C, the self-cleavage came out at 0.438.

Take C15U A30C: the self-cleavage was 0.802.

For A4C C9U, the self-cleavage turned out to be 0.0772.

With C20A G44C, the self-cleavage was 0.146.

With A32C G45U, the self-cleavage was 0.758.

As to C15G C21G, the self-cleavage is 0.0959.

As to G39U G42C, the self-cleavage worked out at 0.133.

A30C U37C: the self-cleavage was 0.154.

In the case of G29C G45C, the self-cleavage is 0.211.

Turning to G17A C25A, the self-cleavage worked out at 0.164.

Regarding A32C G41A, the self-cleavage came to 0.556.

In the case of U37G G45A, the self-cleavage is 0.544.

On to C3A A22U, for which the self-cleavage amounted to 0.127.

For G7A G44U, the self-cleavage was 0.422.

With C8A G39C, the self-cleavage is 0.148.

On to G7U A11U, for which the self-cleavage turned out to be 0.0842.

Turning to C26U G39C, the self-cleavage amounted to 0.0911.

For the variant C26U G39U, the self-cleavage turned out to be 0.102.

On to C5U G39U, for which the self-cleavage came to 0.175.

In the case of C15A G24C, the self-cleavage came to 0.0841.

For A30C A33G, the self-cleavage was 0.58.

For the variant C5A G36A, the self-cleavage stood at 0.583.

Consider C27G A33U, for which the self-cleavage is 0.0804.

On to G16A G42C, for which the self-cleavage was determined as 0.241.

Take A40C G42A: the self-cleavage stood at 0.152.

In the case of U6G U12A, the self-cleavage worked out at 0.769.

Turning to U6G U12C, the self-cleavage came to 0.35.

Regarding G16U C25G, the self-cleavage stood at 0.154.

On to G43A G45U, for which the self-cleavage came to 0.305.

Turning to C3A U12C, the self-cleavage worked out at 0.425.

With G24A G41U, the self-cleavage was 0.082.

Regarding A30U G36C, the self-cleavage is 0.559.

With C5G A22U, the self-cleavage stood at 0.401.

Consider C20U A35G, for which the self-cleavage stood at 0.664.

With C8G G24A, the self-cleavage came out at 0.203.

G41U G47A: the self-cleavage is 0.349.

As to G13A G47U, the self-cleavage amounted to 0.446.

With U37A G47C, the self-cleavage amounted to 0.292.

As to A22C G28U, the self-cleavage was 0.937.

Regarding C8U C19A, the self-cleavage turned out to be 0.0797.

G24U G39U: the self-cleavage was determined as 0.0828.

Regarding U12A G44C, the self-cleavage turned out to be 1.19.

With A23G G45U, the self-cleavage worked out at 0.158.

On to G13U G17U, for which the self-cleavage turned out to be 0.101.

Regarding C8U C20G, the self-cleavage came to 0.0649.

In the case of C14A C20U, the self-cleavage came to 0.977.

For G17U G29U, the self-cleavage turned out to be 0.158.

Turning to A10U G39C, the self-cleavage came out at 0.0863.

As to U6A G39A, the self-cleavage came to 0.255.

With C27U A40C, the self-cleavage is 0.159.

Turning to C27U A40G, the self-cleavage was 0.119.

For A2G C46U, the self-cleavage came out at 0.416.

Consider U6C G44C, for which the self-cleavage came out at 0.513.

As to G7U U31G, the self-cleavage was found to be 0.131.

In the case of U12A A22U, the self-cleavage turned out to be 1.02.

For C26A C27A, the self-cleavage worked out at 0.173.

Take A11U C19A: the self-cleavage is 0.386.

Take A2G G44C: the self-cleavage was found to be 0.212.

Turning to C20U G39U, the self-cleavage was 0.15.

With U37A G43A, the self-cleavage was found to be 0.145.

U6C C9U: the self-cleavage came to 0.0507.

On to A10U C27G, for which the self-cleavage was determined as 0.057.

Turning to G24U G28A, the self-cleavage is 0.0754.

As for A32U G45U, the self-cleavage is 0.819.

C46A: the self-cleavage stood at 0.927.

As to G28C G39A, the self-cleavage stood at 0.445.

As for A2C C25U, the self-cleavage came to 0.0669.

As to A22C C46G, the self-cleavage came to 0.869.

For C9A C27G, the self-cleavage amounted to 0.0551.

For the variant A1U G7A, the self-cleavage was 0.0601.

For C14G C15U, the self-cleavage was 0.401.

For the variant C20A G39A, the self-cleavage was determined as 0.114.

With U18G G45A, the self-cleavage came to 0.0963.

In the case of C9G C14U, the self-cleavage was determined as 0.624.

Turning to A32C A34G, the self-cleavage is 0.761.

On to A1G G41C, for which the self-cleavage came out at 0.186.

On to G28U G48A, for which the self-cleavage worked out at 0.726.

Consider G13U C26U, for which the self-cleavage amounted to 0.109.

For A4C C27U, the self-cleavage was 0.112.

As for A4C C27A, the self-cleavage was found to be 0.0944.

For the variant C5A G45A, the self-cleavage amounted to 0.532.

On to G16A U31C, for which the self-cleavage was found to be 0.816.

With G36C G41C, the self-cleavage was determined as 0.141.

For the variant C26U A33U, the self-cleavage came out at 0.266.

In the case of C9U G38C, the self-cleavage was 0.509.

Consider U12G A35G, for which the self-cleavage is 0.815.

For the variant C9U A35G, the self-cleavage stood at 0.615.

For C8G A34C, the self-cleavage is 0.121.

Consider A10G A33G, for which the self-cleavage was 1.04.

With U12A A23U, the self-cleavage amounted to 0.767.

On to A1C C25U, for which the self-cleavage turned out to be 0.192.

For A33U C46A, the self-cleavage was 0.851.

Take C9U A34G: the self-cleavage amounted to 0.3.

On to G44C G47U, for which the self-cleavage came to 0.244.

As for A10G C21A, the self-cleavage turned out to be 0.137.

Turning to C19G A23U, the self-cleavage stood at 0.11.

For U6A G41U, the self-cleavage was 0.204.

In the case of G43C G45U, the self-cleavage stood at 0.275.

On to A40U G48U, for which the self-cleavage was determined as 0.21.

As for U12A U18G, the self-cleavage came to 0.106.

Turning to G17C G28U, the self-cleavage stood at 0.0606.

On to G16U A22C, for which the self-cleavage was 0.925.

As to A22U G38C, the self-cleavage was found to be 0.779.

In the case of A1U A22G, the self-cleavage was 0.0451.

In the case of C15U C21G, the self-cleavage came out at 0.0408.

Turning to A10C A40U, the self-cleavage was found to be 0.155.

For G17C C25U, the self-cleavage was 0.0911.

For the variant G16A C46A, the self-cleavage worked out at 0.994.

Turning to U6A C14G, the self-cleavage came out at 0.124.

Consider U31G G36A, for which the self-cleavage is 0.662.

For the variant C26U U31C, the self-cleavage was 0.495.

G17A U31C: the self-cleavage came out at 0.746.

C8U C26G: the self-cleavage stood at 0.0721.

In the case of C15G A32U, the self-cleavage came out at 0.0633.

Consider A40U C46G, for which the self-cleavage amounted to 0.16.

As to A35G G36C, the self-cleavage came out at 0.491.

Consider G17C G24C, for which the self-cleavage was 0.0583.

Take U18A G36U: the self-cleavage amounted to 0.172.

C3U C9G: the self-cleavage amounted to 0.12.

As for C15A A22C, the self-cleavage was 0.533.

For the variant C8G G48U, the self-cleavage worked out at 0.263.

For the variant C5U G24A, the self-cleavage amounted to 0.058.

For the variant C26G G36C, the self-cleavage worked out at 0.0652.

C27U G47U: the self-cleavage stood at 0.632.

Turning to C26A G38C, the self-cleavage stood at 0.395.

Take U12G G24C: the self-cleavage was determined as 0.0924.

Take A10U A22C: the self-cleavage was determined as 0.93.

Consider U6C A11C, for which the self-cleavage is 0.292.

With A1U C46A, the self-cleavage turned out to be 0.0731.

For the variant C20U A22C, the self-cleavage came to 1.01.

Consider C8U G17A, for which the self-cleavage came out at 0.119.

Turning to G24U U31A, the self-cleavage was found to be 0.113.

Consider U6A G38U, for which the self-cleavage stood at 0.188.

For A33C G48C, the self-cleavage worked out at 1.1.

Regarding G24C A34U, the self-cleavage is 0.0578.

Consider C8U A10G, for which the self-cleavage was found to be 0.655.

As to G17U C25U, the self-cleavage is 0.204.

Turning to A2G G29A, the self-cleavage is 0.214.

For A2C C9G, the self-cleavage is 0.0449.

G28C A35G: the self-cleavage was determined as 0.596.

As for C9G G17C, the self-cleavage was 0.0619.

For G13U A33C, the self-cleavage amounted to 0.563.
